For this assay, the target named is full-length MukB (wild type) (E. coli) (UniProt P22523). Briefly: fluorescence correlation spectroscopy (FCS); competition: MatP-Cy3B fixed at 1 nM, MukB at 400 nM; ParC variants at 10-fold, unlabeled MatP at 50-fold, DNA at 2.5-fold molar excess.
Sequence of full-length MukB (wild type) (E. coli) (P22523 whole entry): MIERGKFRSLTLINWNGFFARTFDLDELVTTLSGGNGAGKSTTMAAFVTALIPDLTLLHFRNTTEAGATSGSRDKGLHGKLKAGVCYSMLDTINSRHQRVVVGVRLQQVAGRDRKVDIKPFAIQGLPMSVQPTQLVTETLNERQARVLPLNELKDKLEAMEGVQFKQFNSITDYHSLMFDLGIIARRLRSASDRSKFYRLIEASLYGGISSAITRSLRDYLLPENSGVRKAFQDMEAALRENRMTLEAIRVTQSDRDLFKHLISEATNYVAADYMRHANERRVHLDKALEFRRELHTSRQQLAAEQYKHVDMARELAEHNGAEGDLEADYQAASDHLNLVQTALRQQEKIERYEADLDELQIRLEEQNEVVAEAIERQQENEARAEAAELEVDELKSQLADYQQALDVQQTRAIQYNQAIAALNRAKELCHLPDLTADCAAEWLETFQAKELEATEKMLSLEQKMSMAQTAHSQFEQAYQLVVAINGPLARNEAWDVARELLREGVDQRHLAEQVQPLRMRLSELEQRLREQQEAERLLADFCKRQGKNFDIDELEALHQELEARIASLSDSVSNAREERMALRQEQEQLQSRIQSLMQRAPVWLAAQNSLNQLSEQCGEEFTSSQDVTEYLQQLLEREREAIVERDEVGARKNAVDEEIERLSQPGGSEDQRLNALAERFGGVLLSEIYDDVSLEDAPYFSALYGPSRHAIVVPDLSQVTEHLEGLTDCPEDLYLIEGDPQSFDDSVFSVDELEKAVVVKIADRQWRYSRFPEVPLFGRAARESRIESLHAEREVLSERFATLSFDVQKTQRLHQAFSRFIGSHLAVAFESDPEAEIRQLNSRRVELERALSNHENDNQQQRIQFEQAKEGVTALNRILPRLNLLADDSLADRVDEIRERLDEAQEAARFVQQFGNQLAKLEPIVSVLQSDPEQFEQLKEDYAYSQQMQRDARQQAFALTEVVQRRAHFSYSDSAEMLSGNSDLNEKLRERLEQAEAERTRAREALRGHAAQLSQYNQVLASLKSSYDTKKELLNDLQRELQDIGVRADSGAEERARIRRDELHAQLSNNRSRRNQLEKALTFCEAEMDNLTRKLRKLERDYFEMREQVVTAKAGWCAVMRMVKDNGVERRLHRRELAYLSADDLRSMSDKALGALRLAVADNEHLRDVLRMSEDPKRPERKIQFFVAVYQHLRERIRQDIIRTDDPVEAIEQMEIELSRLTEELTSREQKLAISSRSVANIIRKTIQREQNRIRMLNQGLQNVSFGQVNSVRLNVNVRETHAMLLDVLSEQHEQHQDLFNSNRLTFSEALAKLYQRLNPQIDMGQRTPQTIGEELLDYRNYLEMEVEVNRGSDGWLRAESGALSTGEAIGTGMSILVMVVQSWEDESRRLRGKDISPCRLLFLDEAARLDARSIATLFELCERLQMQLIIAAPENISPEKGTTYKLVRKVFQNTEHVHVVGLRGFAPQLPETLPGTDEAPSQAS

Sequence of MBP-ParC^CTD (ParC C-terminal domain with N-terminal MBP fusion) (domain or fragment) (P0AFI2 whole entry, the tested form may be a part): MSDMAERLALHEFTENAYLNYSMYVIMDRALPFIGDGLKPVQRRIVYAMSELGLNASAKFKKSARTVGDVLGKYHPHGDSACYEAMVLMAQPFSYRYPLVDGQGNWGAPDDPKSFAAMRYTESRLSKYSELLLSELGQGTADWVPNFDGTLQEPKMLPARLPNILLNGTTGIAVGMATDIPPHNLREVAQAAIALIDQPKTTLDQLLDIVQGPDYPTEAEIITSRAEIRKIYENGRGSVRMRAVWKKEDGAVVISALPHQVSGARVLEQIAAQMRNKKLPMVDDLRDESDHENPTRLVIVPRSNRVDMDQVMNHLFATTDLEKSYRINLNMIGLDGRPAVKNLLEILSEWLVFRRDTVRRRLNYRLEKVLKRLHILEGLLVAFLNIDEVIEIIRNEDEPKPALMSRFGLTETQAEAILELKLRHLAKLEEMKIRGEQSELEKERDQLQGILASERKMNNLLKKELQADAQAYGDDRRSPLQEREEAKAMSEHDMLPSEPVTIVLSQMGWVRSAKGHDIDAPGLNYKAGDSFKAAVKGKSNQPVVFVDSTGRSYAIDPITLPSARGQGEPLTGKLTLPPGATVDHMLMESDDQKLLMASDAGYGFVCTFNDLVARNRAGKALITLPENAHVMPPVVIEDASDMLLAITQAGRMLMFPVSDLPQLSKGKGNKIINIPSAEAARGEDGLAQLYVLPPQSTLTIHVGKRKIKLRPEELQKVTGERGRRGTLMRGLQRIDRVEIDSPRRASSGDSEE

“MBP-ParC^CTD (ParC C-terminal domain with N-terminal MBP fusion) (domain or fragment)” gave a fold decrease in MatP-Cy3B binding to MukB at 10-fold excess of competitor of 3 fold.
